Test results reported in PMC12313861.

Target: ComFB signaling protein (Slr1970) (Synechocystis)
Test: SEC-MALS; size exclusion chromatography coupled to multiangle light scattering of ComFB; species of 40.5 kDa against theoretical monomer mass 20.4 kDa

For “ComFB signaling protein (Slr1970) (natural protein)”, the stoichiometry N was 2.
